Reference: patent publication US20230279105A1 (SINGLE CELL TECHNOLOGY, published 2023)

molecular target: T1, Human TIM-3 Human Fc tagged protein (human, fluorescently labeled with HiLyte Fluor 555 (sites not given)); experiment: capture slide probed with labeled TIM-3-Fc;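 further: IgG from single CD138-enriched plasma cells, isolated from lymphocytes, immobilized on a derivatized glass slide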
T1 construct: Bought construct; also called TIM-3 protein tagged with human Fc; ACROBiosystems catalog no: TM3-H5258

Binder	binding result
SCT-Fa158 (antibody, V domains shown, murine IgG) VH: QVQLQQPGTELVKPGASVKVSCKASGYTFISYWMHWVKQRPGQGLEWIGNIDPNSGTTNYNEKFKTKATLTVDKSSSTAYMQLSSLTSEDSAVYYCARWGWDGFAYWGQGTLVTVSA VL: DAVMTQTPLSLPVSLGDQASISCRSSQSLENSNGNTYLNWYLQKPGQSPQLLIYRVSTRFSGVLDRFSGSGSGTDFTLKISRVEAEDLGVYFCLQVTHVPYTFGGGTKLEIK	binds
SCT-Fa155 (antibody, V domains shown, murine IgG) VH: QVQLQQPGTELVKPGASVKVSCKASGYTFISYWMHWVKQRPGQGLEWIGNIDPNSGGTNYNEKFKSKAILTVDKSSSTAYMQLSSLTSEDSAVYFCARWGWDGFAYWGQGTLVTVSA VL: DVVMTQTPLSLPVSLGDQASISCRSSQSLENSNGNTYLNWYLQKPGQSPQLLIYRISTRFSGVLDRFSGSGSGTDFTLKISRVEAEDLGVYFCLQVTHVPYTFGGGTKLEIK	binds
SCT-Fa152 (antibody, V domains shown, murine IgG) VH: QVQLQQPGTELVKPGASVKVSCKASGYTFISYCMHWVKQRPGQGLDWIGNIDPNNGGPNYNEKFKTKATLTVDKSSSTAYMQLSSLTSEDSAVYYCARWGWDGFAYWGQGTLVTVSA VL: DAVMTQTPLSLPVSLGDQASISCRSSQSLENSNGNTYLNWYLQKPGQSPQLLIYRVSNRFSGVLDRFSGSGSGTDFTLKISRVEAEDLGVYFCLQVTHVPYTFGGGTKLEIK	binds
SCT-Fa153 (antibody, V domains shown, murine IgG) VH: QVQLQQPGTELVKPGASVKVSCKASGYTFISYWMHWVKQRPGQGLDWIGNIDPNNGGTNYNEKFKSKATLTVDKSSSTAYMQLSSLTSEDSAVYYCARWGWDGFAYWGQGTLVTVSA VL: DAVMTQTPLSLPVSLGDQASISCRSSQSLENSYGNTYLNWYLQKPGQSPQLLIYRVSTRFSGVLDRFSGSGSGTDFTLKISRVEAEDLGVYFCLQVTHVPYTFGGGTKLEIK	binds
SCT-Fa160 (antibody, V domains shown, murine IgG) VH: QVQLQQPGTELVKPGASVKVSCKASGYTFISYWMHWVKQRPGQGLEWIGNIDPNYGGPNYNEKFKTKATLTVDKSSSTAYMQLSSLTSEDSAVYYCARWGWDGFAYWGQGTLVTVSA VL: DAVMTQTPLSLPVSLGDQASISCRSSQSLENSNGNTYLNWYLQKPGQSPQLLIYRVSNRFSGVLDRFSGSGSGTDFTLKISRVEAEDLGVYFCLQLTHVPYTFGGGTKLEIK	binds
SCT-Fa082 (antibody, V domains shown, murine IgG) VH: QGQLQQPGAEVVKPGAAVKLSCKASGYTFTSYWMQWIKQRPGQGLEWIGEIDPSDNYTDYNQNFKGKATLTVDTSSSTAYLQLSSLTSEDSAVYYCAREGAFSSPFAYWGPGTLVTVSS VL: DILMTQSPSSMSVSLGDTVSIICHASQDIRSNIGWLQQKPGKSFKGLIYHGTNLEDGVPSRFSGSGSGADYSLTISSLESEDFADYYCVQYVQFPRTFGGGTKLEIK	binds
SCT-Fa078 (antibody, V domains shown, murine IgG) VH: QGQLQQPGAEVVKPGAAVKLSCKASGYTFTSYWMQWIKQRPGQGLDWIGEIDPSDNYTDYNQNFKGKATLTVDTSSNTAYLQLSSLTSEDSAVYYCAREGAFSSPFAYWGPGTLVTVSS VL: DILMTQSPSSMSVSLGDTVSIICHASQDIRSNIGWLQQKPGKSFKGLIYHGTNLEDGVPSRFSGSGSGADYSLTISSLESEDFADYYCVQYVQFPRTFGGGTKLEIK	binds
SCT-Fa080 (antibody, V domains shown, murine IgG) VH: QGQLQQPGAEVVKPGAAVKLSCKASGYTFTSYWMQWIKQRPGQGLEWIGEIDPSDNYTDYNQHFKGKATLTVDTSSSTAYLQLSSLTSEDSAVYYCAREGAFSSPFAYWGPGTLVTVSS VL: DILMTQSPSSMSVSLGDTVSIICHASQDIRSNIGWLQQKPGKSFKGLIYHGTNLEDGVPSRFSGSGSGADYSLTISSLESEDFADYYCVQYVQFPRTFGGGTKLEIK	binds
SCT-Fa081 (antibody, V domains shown, murine IgG) VH: QGQLQQPGAEVVKPGAAVKLSCKASGYTFTSYWMQWIKQRPGQGLEWIGEIDPSDNYTDYNQNFKGKATLTVDTSSSTAYLQLSSLTSEDSAVYYCAKEGAFSSPFAYWGPGTLVTVSS VL: DILMTQSPSSMSVSLGDTVSIICHASQDIRSNIGWLQQKPGKSFKGLIYHGTNLEDGVPSRFSGSGSGADYSLTISSLESEDFADYYCVQYVQFPRTFGGGTKLEIK	binds

Second part, the binder after the results:

binding result	Binder
binds	SCT-Fa161 (antibody, V domains shown, murine IgG) VH: QVQLQQPGTELVKPGASVKVSCKASGYTFISYWMHWVKQRPGQGLEWIGNIDPNYGGPNYNEKFKTKATLTVDKSSSTAYMQLSSLTSEDSAVYYCARWGWDGFAYWGQGTLVTVSA VL: QIVLTQSPALMSASPGEKVTMTCSASSSVSYMYWYQQKPRSSPKPWIYLTSNLASGVPARFSGSGSGTSYSLTISSMEAEDAATYYCQQWSSNPFTFGSGTKLEIK
binds	SCT-Fa165 (antibody, V domains shown, murine IgG) VH: QVQLQQPGTELVKPGASVKVSCKASGYTFVSYWIHWVKQRPGQGLEWIGNIDPNNGGSNYNERFRTKATLTVDKSSSTAYMQLSSLASEDSAVYYCARWGWDGFAYWGQGTLVTVSA VL: DAVMTQTPLSLPVSLGDQASISCRSSQSLENSNGNTYLNWYLQKPGQSPQLLIYRVSTRFSGVLDRFSGSGSGTDFTLKISRVEAEDLGVYFCLQLTHVPYTFGGGTKLEIK
binds	SCT-Fa159 (antibody, V domains shown, murine IgG) VH: QVQLQQPGTELVKPGASVKVSCKASGYTFISYWMHWVKQRPGQGLEWIGNIDPNYGGPNYNEKFKTKATLTVDKSSSTAYMQLSSLTSEDSAVYYCARWGWDGFAYWGQGTLVTVSA VL: DAVMTQTPLSLPVSLGDQASISCRSSQSLENSNGNTYLNWYLQKPGQSPQLLIYRVSNRFSGVLDRFSGSGSGTDFTLKISRVEAEDLGVYFCLQITHVPYTFGGGTKLEIK
binds	SCT-Fa156 (antibody, V domains shown, murine IgG) VH: QVQLQQPGTELVKPGASVKVSCKASGYTFISYWMHWVKQRPGQGLEWIGNIDPNSGGTNYNEKFKSKAILTVDKSSSTAYMQLSSLTSEDSAVYYCTRWGWDGFAYWGQGTLVTVSA VL: DAVMTQTPLSLPVSLGDQVSISCRSSQSLENSNGNTYLNWYLQKPGQSPQLLIYRISTRFSGVLDRFSGSGSGTDFTLKISRVEAEDLGVYFCLQVTHVPYTFGGGTKLEIK
binds	SCT-Fa157 (antibody, V domains shown, murine IgG) VH: QVQLQQPGTELVKPGASVKVSCKASGYTFISYWMHWVKQRPGQGLEWIGNIDPNSGITNYNEKFKSKAILTVDKSSSTAYMQLSSLTSEDSAVYYCARWGWDGFAYWGQGTLVTVSA VL: DVVMTQTPLSLPVSLGDQASISCRSSQSLENSNGNTYLNWYLQKPGQSPQLLIYRISTRFSGVLDRFSGSGSGTDFTLKISRVEAEDLGVYFCLQVTHVPYTFGGGTKLEIK
binds	SCT-Fa164 (antibody, V domains shown, murine IgG) VH: QVQLQQPGTELVKPGASVKVSCKASGYTFISYWMHWVKQRPGQGLEWIGNINPNNGGTNYNEKFKSKATLTVDKSSSTAYMQLSSLTSEDSAVYYCARWGWDGFAYWGQGTLVTVSA VL: DAVMTQTPLSLPVSLGDQASISCRSSQSLENSNGNTYLNWYLQKPGQSPQLLIYRVSTRFSGVLDRFSGSGSGTDFTLKISRVEAEDLGVYFCLQVTHVPYTFGGGTKLEIK
binds	SCT-Fa168 (antibody, V domains shown, murine IgG) VH: QVQLQQPGTELVKPGASVKVSCKTSGYTFISYWMHWVKQRPGQGLEWIGNIDPNSGTTNYNEKFKTKATLTVDKSSSTAYMQLSSLTSEDSAVYYCARWGWDGFAYWGQGTLVTVSA VL: DAVMTQTPLSLPVSLGDQASISCRSSQSLENSNGNTYLNWYLQKPGQSPQLLIYRVSTRFSGVLDRFSGSGSGTDFTLKISRVEAEDLGVYFCLQVTHVPYTFGGGTKLEIK
binds	SCT-Fa166 (antibody, V domains shown, murine IgG) VH: QVQLQQPGTELVKPGASVKVSCKASGYTFVSYWMHWVKQRPGQGLEWIGNIDPNNGGSNYNERFRTKATLTVDKSSSTAYMQLSSLASEDSAVYYCARWGWDGFAYWGQGTLVTVSA VL: DAVMTQTPLSLPVSLGDQASISCRSSQSLENSNGNTYLNWYLQKPGQSPQLLIYRVSTRFSGVLDRFSGSGSGTDFTLKISRVEAEDLGVYFCLQLTHVPYTFGGGTKLEIK
binds	SCT-Fa154 (antibody, V domains shown, murine IgG) VH: QVQLQQPGTELVKPGASVKVSCKASGYTFISYWMHWVKQRPGQGLEWIGNIDPNSGGTKYNEKFKSKAILTVDKSSSTAYMQLSSLTSEDSAVYYCTRWGWDGFAYWGQGTLVTVSA VL: DAVMTQTPLSLPVSLGDQVSISCRSSQSLENSNGNTYLNWYLQKPGQSPQLLIYRISTRFSGVLDRFSGSGSGTDFTLKISRVEAEDLGVYFCLQVTHVPYTFGGGTKLEIK
binds	SCT-Fa148 (antibody, V domains shown, murine IgG) VH: QVQLQQPGAEVVKPGASVKLSCKASGYTFTSYWMQWVKQRPGQGLEWIGEIDPSDNYTDYNQNFKGKATLTVDTSSSTAYMQLSSLTSEDSAVYYCAKEGAYSSPFAYWGPGTLVTVSA VL: DILMTQSPSSMSVSLGDTVTIICHASQDIRSNIGWLRQKPGTSFKGLIYHGTNLEDGVPSRFSGSGSGADYSLTISSLESEDFADYYCVQYVQFPRTFGGGTKLEIK
binds	SCT-Fa144 (antibody, V domains shown, murine IgG) VH: QVQLQQPGAELVTPGASVKLSCKASGYTFTTYWMHWVKQRPGQGLEWIGEIDPSDSYRNYNQKFKGKATLTVDKSSSTAYMQLSSLTSEDSAVYYCARNYGSNYVGYFDYWGQGTALTVSS VL: DIQMTQTTSSLSASLGDRVTISCRASQDITNYLNWYQQRPDGTVKLLIYYTSRLHSGVPSRFSGSGSGTDYSLTISNLAQGDIATYFCQQASTLPWTFGGGTKLDIK
binds	SCT-Fa151 (antibody, V domains shown, murine IgG) VH: QVQLQQPGSELVRPGTSVKLSCKASGYTFTSYWMHWVKQRPGQGLEWIGVIDPSDNNTHYNQKFTGKATLTVDTSSSTAYMHLSSLTSEDSAVFYCARNDYDGGYFDFWGQGTTLTVSS VL: DVVMTQTPLSLPVSLGDHASISCRSSQSLVHSNGHTYLHWYLQKPGQSPKLLIDKVSNRFSGVPDRFSGSGSGTDFTLKISRVEAEDLGVYFCSQSTHVPWTFGGGTKLEIK
